The target of data set [1] is T1, human Cul3 N-terminal domain (NTD, residues M1-L388) with the engineered mutations I342R and L346D (human, UniProt Q13618 1-388, I342R | L346D).
T1 construct: Cullin-3, human, UniProt Q13618, N-terminal domain residues M1-L388, with I342R and L346D introduced to stabilize the isolated Cullin-repeat domain; only the vector pNIC-CTHF is named, the tag is inferred from it; The general methods say that eluted proteins were cleaved with TEV protease; also called Cullin3; Cul3 NTD; source: E. coli BL21(DE3)R3-pRARE2, purified (nickel-sepharose, SEC)
Put plainly: ITC; KCTD5 titrated into Cul3 NTD; 25°C; 50 mM HEPES pH 7.5, 150 mM NaCl, 1 mM TCEP, 5% glycerol; single-binding site model. The note with it: both partners purified. (In general: ITC needs no label: the signal is the heat of the interaction.)

Data set [2] deals with the molecule itself. Put plainly: SEC-MALS; BTB domains alone, injected at 50 µM; Shodex KW-803; 50 mM HEPES pH 7.5, 150 mM NaCl, 1 mM TCEP. On the technique in general: Size exclusion chromatography separates by hydrodynamic size, large species first.
Data set [3] concerns the target T2, human Cul3 N-terminal domain (NTD, residues M1-L388) with the engineered mutations I342R and L346D (human, UniProt Q13618 1-388, I342R | L346D).
T2 construct: Cullin-3, human, UniProt Q13618, N-terminal domain residues M1-L388, with the stabilising mutations I342R and L346D; The methods say in general that the eluted His-tagged proteins were cleaved with TEV protease; also called Cullin3; Cul3 NTD; source: E. coli BL21(DE3)R3-pRARE2, purified (nickel-sepharose, TEV cleavage, SEC)
Put plainly: ITC; KCTD5 titrated into Cul3 in the cell; 25°C; 50 mM HEPES pH 7.5, 150 mM NaCl, 1 mM TCEP, 5% glycerol; single-binding site model. The settings on record: both partners purified.

Data set [4] concerns the target T2, human Cul3 N-terminal domain (NTD, …). As to the kind of experiment: ITC; KCTD protein titrated into Cul3 in the cell; 15°C; 50 mM HEPES pH 7.5, 150 mM NaCl, 1 mM TCEP, 5% glycerol; single-binding site model. The settings on record: both partners purified.
Data set [5] deals with T1, human Cul3 N-terminal domain (NTD, …). As to the kind of experiment: ITC; KCTD protein titrated into Cul3 NTD; 15°C; 50 mM HEPES pH 7.5, 150 mM NaCl, 1 mM TCEP, 5% glycerol; single-binding site model. The note with it: both partners purified.
The target is the same in data set [6]. As to the kind of experiment: SEC; KCTD protein alone and mixed with Cul3 NTD at a molar ratio of 1 : 1; UV 280 nm traces; injected at 50 µM; 50 mM HEPES pH 7.5, 150 mM NaCl, 1 mM TCEP. The note with it: both partners purified.
Data set [7] deals with the molecule itself. As to the kind of experiment: crystal structure; BTB domains alone, sitting-drop vapour diffusion at 20 and 4°C, data at 100 K.
The target of data set [8] is T1, human Cul3 N-terminal domain (NTD, …). As to the kind of experiment: SAXS; KCTD-Cul3 complexes co-purified over S200, ~10% more Cul3 added, 10 mg/ml injected onto Shodex KW404 at 20°C; 50 mM HEPES pH 7.5, 150 mM NaCl, 1 mM TCEP, 5% glycerol; curves compared with a 5 : 5 model. The settings on record: both partners purified.
Data set [9] concerns the molecule itself. The data set is described as above.

Usually Kd stands for a measure of binding affinity in units of concentration. High values mean a looser complex, low ones a tighter complex. Usually stoichiometry N stands for a count of units in the complex or per binding partner.

B1: human KCTD5 BTB domain (residues G40-R145) (domain or fragment)
chain: not shown
notes: KCTD5, human, UniProt Q9NXV2, BTB domain residues G40-R145; cleaved with TEV protease by the general methods; source: E. coli BL21(DE3)R3-pRARE2, purified (nickel-sepharose, TEV cleavage, SEC); not shown: His6, N-terminal, cleaved
Turning to B1, binding in data set [1] was characterised by a dissociation constant (Kd) of 55 nM. Besides, the “stoichiometry N” value in [2] worked out at 5.

B2: human KCTD16 BTB domain (residues G16-E133) (domain or fragment, UniProt Q68DU8 16-133, looked up)
chain: GSAVPNSFPEVVELNVGGQVYFTRHSTLISIPHSLLWKMFSPKRDTANDLAKDSKGRFFIDRDGFLFRYILDYLRDRQVVLPDHFPEKGRLKREAEYFQLPDLVKLLTPDEIKQSPDE
notes: KCTD16, human, UniProt Q68DU8, BTB domain residues G16-E133; cleaved with TEV protease by the general methods; source: E. coli BL21(DE3)R3-pRARE2, purified (nickel-sepharose, TEV cleavage, SEC); not shown: His6, N-terminal, cleaved
In the case of B2, the “stoichiometry N” value in data set [2] was found to be 5.

B3: KCTD5 BTB domain (residues G40-R145) (domain or fragment)
chain: not shown
notes: Pentamer by SEC-MALS; TEV cleavage stated in general in the methods; source: E. coli BL21(DE3)R3-pRARE2, purified (nickel-sepharose, TEV cleavage, SEC); not shown: His6, N-terminal, cleaved
Consider B3, for which, in data set [3], the Ka came to 1.8e+07 M⁻¹ and the “stoichiometry N” value came to 0.81.

B4: SHKBP1 BTB domain (residues G18-S120) (domain or fragment, human, UniProt Q8TBC3 18-120, looked up)
chain: GEVIHLNVGGKRFSTSRQTLTWIPDSFFSSLLSGRISTLKDETGAIFIDRDPTVFAPILNFLRTKELDPRGVHGSSLLHEAQFYGLTPLVRRLQLREELDRSS
notes: TEV cleavage stated in general in the methods; source: E. coli BL21(DE3)R3-pRARE2, purified (nickel-sepharose, TEV cleavage, SEC); not shown: His6, N-terminal, cleaved
Consider B4, for which, in [4], the Ka was determined as 1.15e+07 M⁻¹ and the “stoichiometry N” value worked out at 0.92.

B5: human SHKBP1 BTB domain (residues G18-S120) (domain or fragment, UniProt Q8TBC3 18-120, looked up)
chain: B4 chain
notes: cleaved with TEV protease by the general methods; source: E. coli BL21(DE3)R3-pRARE2, purified (nickel-sepharose, TEV cleavage, SEC); not shown: His6, N-terminal, cleaved
In data set [5], B5 had a Kd of 87 nM. Moreover, the “stoichiometry N” value in data set [6] is 1 KCTD : Cul3 (5 : 5).

B6: KCTD5 BTB + CTD multi-domain construct (residues G40-M234) (domain or fragment, human, UniProt Q9NXV2 40-234, looked up)
chain: GSVSKWVRLNVGGTYFLTTRQTLCRDPKSFLYRLCQADPDLDSDKDETGAYLIDRDPTYFGPVLNYLRHGKLVINKDLAEEGVLEEAEFYNITSLIKLVKDKIRERDSKTSQVPVKHVYRVLQCQEEELTQMVSTMSDGWKFEQLVSIGSSYNYGNEDQAEFLCVVSKELHNTPYGTASEPSEKAKILQERGSRM
notes: as for B4
Take B6: in data set [3], the Ka came out at 7.95e+08 M⁻¹ and the “stoichiometry N” value was 0.94.

B7: human KCTD5 BTB + CTD multi-domain construct (residues G40-M234) (domain or fragment, UniProt Q9NXV2 40-234, looked up)
chain: B6 chain
notes: KCTD5, human, UniProt Q9NXV2, BTB + CTD residues G40-M234; cleaved with TEV protease by the general methods; also called multi-domain KCTD5; source: E. coli BL21(DE3)R3-pRARE2, purified (nickel-sepharose, TEV cleavage, SEC); not shown: His6, N-terminal, cleaved
Molecule B7 returned a dissociation constant Kd in data set [1] of 1 nM.

B8: KCTD13 BTB domain (residues G27-L144) (domain or fragment, human, UniProt Q8WZ19 27-144, looked up)
chain: GPAAYGLKPLTPNSKYVKLNVGGSLHYTTLRTLTGQDTMLKAMFSGRVEVLTDAGGWVLIDRSGRHFGTILNYLRDGSVPLPESTRELGELLGEARYYLVQGLIEDCQLALQQKRETL
notes: TEV cleavage stated in general in the methods; also called BACURD1; source: E. coli BL21(DE3)R3-pRARE2, purified (nickel-sepharose, TEV cleavage, SEC); not shown: His6, N-terminal, cleaved
For the molecule B8, in data set [4], the Ka came out at 1.01e+07 M⁻¹ and the “stoichiometry N” value worked out at 0.87.

B9: human KCTD13 BTB domain (residues G27-L144) (domain or fragment, UniProt Q8WZ19 27-144, looked up)
chain: B8 chain
notes: KCTD13, human, UniProt Q8WZ19, BTB domain residues G27-L144; cleaved with TEV protease by the general methods; also called BACURD1; source: E. coli BL21(DE3)R3-pRARE2, purified (nickel-sepharose, TEV cleavage, SEC); not shown: His6, N-terminal, cleaved
In data set [5], B9 yielded a Kd of 100 nM. Moreover, the results for the “stoichiometry N” value in data set [7], in data set [8] and in data set [9] were 4, 1 KCTD : Cul3 (5 : 5) and 5, respectively.

B10: human KCTD10 BTB domain (residues G26-E135) with F61L (domain or fragment, UniProt Q9H3F6 26-135, looked up)
chain: GTSPSSKYVKLNVGGALYYTTMQTLTKQDTMLKAMLSGRMEVLTDSEGWILIDRCGKHFGTILNYLRDGAVPLPESRREIEELLAEAKYYLVQGLVEECQAALQNKDTYE
notes: KCTD10, human, UniProt Q9H3F6, BTB domain residues G26-E135; cleaved with TEV protease by the general methods; source: E. coli BL21(DE3)R3-pRARE2, purified (nickel-sepharose, TEV cleavage, SEC); not shown: His6, N-terminal, cleaved
For B10, in data set [7], the “stoichiometry N” value came out at 4.

These data come from publication PMC5664961 (Biochemical Journal, 2017).
